The values below are quoted from earlier work in PMC7020651.

pKd: −log10 of the molar value.

Series [1] concerns the target Histone H4 1-12 (Homo sapiens) (UniProt P62805).
The target in series [2] is Histone H4 (Homo sapiens) (UniProt P62805). As to the kind of experiment: ITC. Background: Isothermal titration calorimetry measures the heat released or taken up as one component is titrated into another.

As to P/CAF bromodomain (from UniProt Q92831), the negative logarithm of the Kd (pKd) in series [1] is 3.46.

Take “TAFII250 tandem bromodomains (from UniProt P21675)”: in series [2], the pKd is 4.40.

One may read the pKd as the Kd on a negative log10 scale, so that one unit is a factor of ten.
